Here are results for 120 sequences from the supplement of paper PMC10126150.

± gives the standard deviation of the averaged measurements.

The data set relates to ATP. Briefly: switch fluorescence ratio, 500 uM ATP over buffer (Cy3 cluster intensity, sum of 5 cycles each) (fold (ratio)); higher = stronger signal-on switching upon ATP binding; sequences stand for … in TCGTCGGCAGCGTCAGATGTGTATAAGAGACAGTTTTTTTTTTTTTTTTTTTTTTTTT…TC. To be noted: aptamer strand: ATP DNA aptamer (quencher-CACCTGGGGGAGTATTGCGGAGGAAGG + anchor), 100 nM annealed; ATP concentration: 500 uM. An outline of the steps:
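For every switch-domain sequence, the fluorescence ratio is the mean of per-cluster values, each being summed target-cycle Cy3 intensity over summed buffer-cycle Cy3 intensity. Clusters outside 100-1000 RFU were excluded. On a modified Illumina MiSeq flow-cell, the Cy3-labelled switching-strand clusters were annealed to 100 nM quencher-labelled ATP aptamer, imaged in selection buffer and then after 15 min with 500 uM ATP at 22 °C. Five such cycles were run, with NaOH stripping and re-annealing between them.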
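Further: ATP exposure 15 min at 22 °C before imaging.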

Take GTGCGGAGTG: the switch fluorescence ratio turned out to be 0.97 ± 0.041. Then GTGCGGCCAA, with 1.02 ± 0.044; and GTGCGTCTTT, with 1.01 ± 0.041. In the case of GTGCTAAATA it was 1.02 ± 0.0067; in that of GTGCTAACCT, 1.271 ± 0.011; in that of GTGCTGGGCG, 0.994 ± 0.028. For the sequence GTGCTGGGGG, the switch fluorescence ratio was 1.02 ± 0.02.

Turning to GTGCTTGCGG, the switch fluorescence ratio was 1.01 ± 0.036. With GTGCTTGGAA, the switch fluorescence ratio is 0.994 ± 0.033.

In the case of GTGGAAAATT, the switch fluorescence ratio is 0.987 ± 0.018.

GTGGAAGAGT: the switch fluorescence ratio was 0.999 ± 0.018. Then GTGGAAGGTT, with 0.995 ± 0.014; and GTGGACAGGC, with 1 ± 0.02; and GTGGACCTGA, with 1.07 ± 0.02. In the case of GTGGACTTCG it was 1.0178 ± 0.001; in that of GTGGAGTTTG, 0.999 ± 0.012; in that of GTGGATAGTC, 0.992 ± 0.066. Then GTGGATATTG, with 1 ± 0.028. As for GTGGATGCGG, the switch fluorescence ratio came to 0.962 ± 0.038. With GTGGATGGGG, the switch fluorescence ratio was 1.05 ± 0.13. Then GTGGCAAAAG, with 1.02 ± 0.033; and GTGGCAGGAA, with 0.964 ± 0.068; and GTGGCGAAGG, with 0.993 ± 0.014. Regarding GTGGCGCCGC, the switch fluorescence ratio came out at 0.959 ± 0.047. In the case of GTGGCGTGGA it was 0.991 ± 0.021; in that of GTGGCTATGG, 0.96188 ± 0.00027.

GTGGCTCTGC: the switch fluorescence ratio was determined as 0.973 ± 0.077. Consider GTGGCTGGGG, for which the switch fluorescence ratio was found to be 1 ± 0.029. Regarding GTGGGAAAG, the switch fluorescence ratio came to 0.983 ± 0.016. Then GTGGGAACCT, with 1.45 ± 0.29; and GTGGGAAGGG, with 0.996 ± 0.017; and GTGGGAGCGG, with 1.02 ± 0.042. Then GTGGGAGGGT, with 0.984 ± 0.041. Then GTGGGAGGTG, with 1 ± 0.046; and GTGGGATGGA, with 0.978 ± 0.014; and GTGGGATTTG, with 0.9697 ± 0.0069.

Take GTGGGGATTC: the switch fluorescence ratio came out at 0.971 ± 0.037. Regarding GTGGGGCCGA, the switch fluorescence ratio was 1.01 ± 0.031.

For the sequence GTGGGGCGGA, the switch fluorescence ratio was found to be 1.01 ± 0.023. Then GTGGGGGAAG, with 0.993 ± 0.039; and GTGGGGGACT, with 1.28 ± 0.5; and GTGGGGGAGC, with 0.985 ± 0.029. In the case of GTGGGGGCTT it was 0.947 ± 0.021. GTGGGGGGTG: the switch fluorescence ratio worked out at 1.02 ± 0.057. As for GTGGGGGTAA, the switch fluorescence ratio was 0.9692 ± 0.0039. In the case of GTGGGGTACA it was 0.996 ± 0.049.

As for GTGGGGTGTT, the switch fluorescence ratio came out at 0.985 ± 0.02. In the case of GTGGGTCAGG it was 1.01 ± 0.013.

For the sequence GTGGGTGCAG, the switch fluorescence ratio worked out at 1.03 ± 0.041. In the case of GTGGGTGCGG, the switch fluorescence ratio worked out at 0.979 ± 0.051. Then GTGGGTTATC, with 1.004 ± 0.007; and GTGGGTTGGG, with 1.09 ± 0.058. GTGGTAAGTT: the switch fluorescence ratio was 0.942 ± 0.026. For GTGGTAGGGA, the switch fluorescence ratio turned out to be 0.98 ± 0.019.

Turning to GTGGTATGGT, the switch fluorescence ratio amounted to 1.02 ± 0.025. For GTGGTCCGCG, the switch fluorescence ratio came to 1.017 ± 0.0015. Then GTGGTCTGTG, with 0.972 ± 0.018; and GTGGTGATAG, with 0.9652 ± 0.0041; and GTGGTGCACG, with 0.9971 ± 0.0026. In the case of GTGGTGGAAA it was 1 ± 0.0029; in that of GTGGTTAGAA, 0.9841 ± 0.0025.

For the sequence GTGGTTAGGG, the switch fluorescence ratio was 1.01 ± 0.041.

Regarding GTGGTTAGGT, the switch fluorescence ratio is 1 ± 0.034. In the case of GTGGTTATCG it was 1.02 ± 0.043. Then GTGGTTCCCG, with 1 ± 0.0099; and GTGGTTGGCA, with 0.968 ± 0.033. For the sequence GTGGTTTGAC, the switch fluorescence ratio came out at 0.99 ± 0.013. Regarding GTGGTTTGGC, the switch fluorescence ratio was 1.01 ± 0.09. Then GTGGTTTTTG, with 0.968 ± 0.025; and GTGTAAACGT, with 1.04 ± 0.05. Then GTGTAAGGG, with 1.03 ± 0.031; and GTGTAATTGG, with 1.018 ± 0.0058. Then GTGTACTCGA, with 1.04 ± 0.019; and GTGTAGATTA, with 1.02 ± 0.014; and GTGTAGGGAT, with 0.964 ± 0.015. In the case of GTGTATAGAT, the switch fluorescence ratio came out at 1.01 ± 0.011. Turning to GTGTATTTTT, the switch fluorescence ratio amounted to 0.99 ± 0.024. Consider GTGTCAACGT, for which the switch fluorescence ratio worked out at 0.978 ± 0.017.

For the sequence GTGTCAACTA, the switch fluorescence ratio came out at 0.987 ± 0.016.

Turning to GTGTCCGGTA, the switch fluorescence ratio stood at 0.983 ± 0.037. In the case of GTGTCTGAGC it was 0.966 ± 0.031. In the case of GTGTGAACGG it was 0.958 ± 0.018. In the case of GTGTGACTCG it was 1.03 ± 0.062. Take GTGTGAGTTA: the switch fluorescence ratio was 0.992 ± 0.034. Consider GTGTGATTTT, for which the switch fluorescence ratio stood at 0.992 ± 0.028. Consider GTGTGCAACT, for which the switch fluorescence ratio is 1.02 ± 0.024.

Consider GTGTGCTGTG, for which the switch fluorescence ratio came to 1.01 ± 0.063. In the case of GTGTGCTTAG it was 1.027 ± 0.004; in that of GTGTGCTTTG, 0.998 ± 0.048.

Take GTGTGGAGGT: the switch fluorescence ratio came to 0.964 ± 0.016. In the case of GTGTGGATTC it was 0.998 ± 0.013. Then GTGTGGGCTG, with 1.0001 ± 0.0002. Then GTGTGTCTCT, with 0.999 ± 0.016; and GTGTTAACTG, with 0.984 ± 0.028.

GTGTTAGGGA: the switch fluorescence ratio came to 1.01 ± 0.015. Then GTGTTAGTCG, with 1.02 ± 0.1; and GTGTTATGGG, with 0.978 ± 0.037. Then GTGTTATTGA, with 0.97161 ± 0.00039; and GTGTTATTTT, with 0.998 ± 0.053; and GTGTTCAACG, with 0.994 ± 0.04. In the case of GTGTTCGACG, the switch fluorescence ratio is 0.995 ± 0.056. In the case of GTGTTCGAGT it was 0.986 ± 0.034.

Regarding GTGTTCTTAT, the switch fluorescence ratio was determined as 1.01 ± 0.011.

With GTGTTGGGGG, the switch fluorescence ratio came to 0.984 ± 0.039. Then GTGTTTAAAA, with 0.995 ± 0.013; and GTGTTTAGCT, with 0.992 ± 0.044; and GTGTTTGGGT, with 0.978 ± 0.03. In the case of GTGTTTGGTT it was 1.01 ± 0.053. In the case of GTGTTTTTGA it was 1.01 ± 0.034; in that of GTTAAAAGGC, 0.986 ± 0.023. As to GTTAACCGGA, the switch fluorescence ratio came out at 1.01 ± 0.012.

For the sequence GTTAACGCGT, the switch fluorescence ratio amounted to 1.02 ± 0.02. Then GTTAATGTCG, with 1.056 ± 0.0053. In the case of GTTACAAGAG it was 0.9955 ± 0.0077; in that of GTTACACTCA, 1.032 ± 0.002; in that of GTTACGAGTT, 0.977 ± 0.012. For GTTACTGGAA, the switch fluorescence ratio is 1.04 ± 0.02. On to GTTACTGTTC, for which the switch fluorescence ratio is 0.98 ± 0.13. On to GTTACTTGTA, for which the switch fluorescence ratio came to 0.978 ± 0.025. In the case of GTTAGAAATG, the switch fluorescence ratio stood at 1.01 ± 0.011.
